Assay results as given in patent publication US20050065081A1, “Tyrosine kinase inhibitors” (priority 2002, published 2005).

Tested on: GST-Jun
Assay: Abl in vitro kinase assay of immunoprecipitated Abl proteins, GST-Jun as substrate
Assay type: biochemical
Conditions: expressed in HEK293 cells, relative to Abl M1-K531
Description: C. Abl protein was immunoprecipitated from total cell extract using anti-Abl antibodies, blotted to nitrocellulose and probed with anti-Abl and anti-phosphotyrosine antibodies (left panels). Abl immunoprecipitates were assayed for catalytic activity by in vitro kinase assay using GST-Jun as substrate.
The catalytic activity of purified Abl protein bound to protein G-Sepharose beads was determined as follows. Beads were washed three times with IP buffer, two times with IP buffer without NaCl and two times with kinase assay buffer (20 mM Tris-HCl pH 7.5, 10 mM MgCl2, 1 mM DTT). Twenty μl linase assay mix (1 μg GST-Crk121-226 (Dorey et al., 1999), 0.5 μl [γ-^32P]-ATP (Amersham), 0.1 mM ATP in kinase assay buffer) was added and the mixture was incubated at room temperature for 10 and 20 minutes. The kinase reaction was stopped by adding SDS-sample buffer and analyzed by SDS-PAGE. Quantification of the reaction was done by cutting the desired bands from gel followed by liquid scintillation counting and/or phosphoimager analysis. For the in vitro inhibition of Abl, GST or GST 1b+2 protein were bacterially expressed, purified and dialysed against kinase assay buffer. Equal quantities of purified proteins were added directly to the kinase assay mixture, samples were incubated for 2 hours at 4° C. and then assayed as above.

Molecule: Abl M1-K531: deletion mutant lacking the last exon region of c-Abl
- Catalytic activity and tyrosine phosphorylation (in words): did not lead to activation

B1: Abl P82-K531: mutant lacking the last exon region and the N-terminal amino acids preceding the SH3 domain (protein, UniProt P00519 82-531, looked up, fragment)
chain: ITKGEKLRVLGYNHNGEWCEAQTKNGQGWVPSNYITPVNSLEKHSWYHGPVSRNAAEYLLSSGINGSFLVRESESSPGQRSISLRYEGRVYHYRINTASDGKLYVSSESRFNTLAELVHHHSTVADGLITTLHYPAPKRNKPTVYGVSPNYDKWEMERTDITMKHKLGGGQYGEVYEGVWKKYSLTVAVKTLKEDTMEVEEFLKEAAVMKEIKHPNLVQLLGVCTREPPFYIITEFMTYGNLLDYLRECNRQEVNAVVLLYMATQISSAMEYLEKKNFIHRDLAARNCLVGENHLVKVADFGLSRLMTGDTYTAHAGAKFPIKWTAPESLAYNKFSIKSDVWAFGVLLWEIATYGMSPYPGIDLSQVYELLEKDYRMERPEGCPEKVYELMRACWQWNPSDRPSFAEIHQAFETMFQESSISDEVEKELGKQGVRGAVSTLLQAPELPTK
modifications: isoform 1B
notes: mutant lacking the last exon region and the N-terminal amino acids preceding the SH3 domain
- Catalytic activity and tyrosine phosphorylation (in words): highly active in vitro
